{
  "source": "patent US20170218075A1",
  "about": "(HONG KONG UNIVERSITY OF SCIENCE AND TECHNOLOGY, published 2017)",
  "key": {"[1]": {"target": "T1, GST-human EphA4 ligand binding domain (LBD) (human, UniProt P54764 29-209)", "T1 construct": "also called EphA4 LBD; EphA4 LBD recombinant protein; not shown: glutathione S-transferase (GST) tag", "T1 sequence (P54764 29-209)": "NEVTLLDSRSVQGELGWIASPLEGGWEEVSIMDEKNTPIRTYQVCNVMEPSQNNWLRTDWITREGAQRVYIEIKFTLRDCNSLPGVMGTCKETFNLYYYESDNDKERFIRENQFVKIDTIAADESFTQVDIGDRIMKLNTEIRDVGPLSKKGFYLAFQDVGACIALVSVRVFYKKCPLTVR", "test": "isothermal titration calorimetry, 20 µM LBD protein and 1 µM antibody", "experimental": "FIG. 5. […] Isothermal titration calorimetry (ITC) experiments were carried out by incubating 20 μM Eph LBD protein in the cell with 1 μM antibodies.\nTo investigate the binding property of the IgG1s m101, m105, and m119 to EphA4, GST-human EphA4 ligand binding domain (LBD) was expressed and purified. The recognition of EphA4 LBD by the 3 IgG1s m101, m105, and m119 was determined by Western blot analysis. The EphA4 LBD protein was run on SDS-PAGE and they were immunoblotted with the 3 IgG1s (FIG. 4). The kinetics of the 3 IgG1s and EphA4 LBD interaction were further analyzed by conducting isothermal titration calorimetry (ITC) experiments. The heat generated by the interaction of EphA4 LBD recombinant protein with the IgG1s was measured with a sensitive calorimeter."}, "[2]": {"target": "T2, extracellular domain of mouse EphB2 recombinant protein (mouse, UniProt P54763 19-543)", "T2 construct": "extracellular domain; also called EphB2 receptor", "T2 sequence (looked up)": "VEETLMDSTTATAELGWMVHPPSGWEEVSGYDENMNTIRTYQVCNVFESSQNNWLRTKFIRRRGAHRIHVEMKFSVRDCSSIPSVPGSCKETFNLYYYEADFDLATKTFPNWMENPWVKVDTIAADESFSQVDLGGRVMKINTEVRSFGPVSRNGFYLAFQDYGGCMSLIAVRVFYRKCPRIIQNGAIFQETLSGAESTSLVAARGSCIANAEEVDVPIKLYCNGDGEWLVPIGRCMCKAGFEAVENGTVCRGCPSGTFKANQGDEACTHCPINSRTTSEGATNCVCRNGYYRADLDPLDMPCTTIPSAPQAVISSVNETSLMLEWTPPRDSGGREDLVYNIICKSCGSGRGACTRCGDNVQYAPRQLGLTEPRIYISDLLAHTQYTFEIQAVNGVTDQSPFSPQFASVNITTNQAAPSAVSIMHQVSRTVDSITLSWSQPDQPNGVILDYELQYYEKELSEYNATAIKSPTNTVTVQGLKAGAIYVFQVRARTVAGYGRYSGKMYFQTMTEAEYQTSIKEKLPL", "test": "competitive ELISA: mouse EphB2 extracellular domain coated, incubated with IgG1 m105, then biotinylated mouse ephrin-B2 Fc; streptavidin-biotin detection, % of inhibition", "experimental": "(§1) Extracellular domain of mouse EphA4 recombinant protein or extracellular domain of mouse EphB2 recombinant protein was first incubated with IgG1 m105, followed by incubating with different biotinylated recombinant mouse ephrin-A/ephrin-B Fc chimeric proteins. The effect of IgG1 m105 on the interaction of EphA4/EphB2 and ephrin-A/ephrin-B was then determined via the streptavidin-biotin detection method.\n(§2) The EphA4 proteins were coated on a 96-well plate (Costar) at 50 ng/well in PBS overnight at 4° C. For phage ELISA, phages from each round of panning (polyclonal phage ELISA) or clones randomly picked from the infected TG 1 cells (monoclonal phage ELISA) were incubated with immobilized antigen. Bound phages were detected with anti-M13-HRP polyclonal Ab (Pharmacia, Piscataway, N.J.). For the soluble Fab binding assay, HRP-conjugated mouse anti-FLAG tag Ab (Sigma-Aldrich) was used to detect Fab binding. For the IgG1 binding assay, HRP-conjugated anti-Fab Ab (Sigma-Aldrich) was used for detection. For competitive ELISA assay, extracellular domain of mouse EphA4 recombinant protein or extracellular domain of mouse EphB2 recombinant protein was pre-coated on the ELISA plate and then incubated with different IgG1s for 1 hr at room temperature. […] The interaction of EphA4/EphB2 and ephrin-A/ephrin-B was determined via the streptavidin-biotin detection method."}, "[3]": {"target": "T3, extracellular domain of mouse EphA4 recombinant protein (mouse, UniProt Q03137 20-547)", "T3 construct": "also called mouse EphA4 extracellular domain", "T3 sequence (Q03137 20-547 limits assumed)": "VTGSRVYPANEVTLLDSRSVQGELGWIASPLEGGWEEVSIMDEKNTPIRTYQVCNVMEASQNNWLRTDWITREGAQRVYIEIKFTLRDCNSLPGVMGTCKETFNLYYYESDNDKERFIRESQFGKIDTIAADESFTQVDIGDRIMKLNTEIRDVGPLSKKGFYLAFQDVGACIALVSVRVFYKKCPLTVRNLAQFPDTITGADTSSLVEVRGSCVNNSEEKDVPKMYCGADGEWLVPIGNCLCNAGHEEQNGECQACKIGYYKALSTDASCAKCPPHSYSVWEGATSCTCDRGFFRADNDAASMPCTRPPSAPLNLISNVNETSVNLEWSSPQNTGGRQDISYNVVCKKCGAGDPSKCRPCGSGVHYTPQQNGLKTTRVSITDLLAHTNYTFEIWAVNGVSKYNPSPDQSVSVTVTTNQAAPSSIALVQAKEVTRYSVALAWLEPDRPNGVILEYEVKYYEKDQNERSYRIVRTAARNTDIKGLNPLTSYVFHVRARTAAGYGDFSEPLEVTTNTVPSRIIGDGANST", "test": "competitive ELISA, mouse EphA4 ECD coated; competitor biotinylated mouse ephrin-A1 Fc", "experimental": "The interaction of EphA4 and ephrin-A that attenuated by the IgG1s was determined via the streptavidin-biotin detection method. IC50 of the 3 IgG1s were determined.\n(§3) The EphA4 proteins were coated on a 96-well plate (Costar) at 50 ng/well in PBS overnight at 4° C. For phage ELISA, phages from each round of panning (polyclonal phage ELISA) or clones randomly picked from the infected TG 1 cells (monoclonal phage ELISA) were incubated with immobilized antigen. Bound phages were detected with anti-M13-HRP polyclonal Ab (Pharmacia, Piscataway, N.J.). For the soluble Fab binding assay, HRP-conjugated mouse anti-FLAG tag Ab (Sigma-Aldrich) was used to detect Fab binding. For the IgG1 binding assay, HRP-conjugated anti-Fab Ab (Sigma-Aldrich) was used for detection. For competitive ELISA assay, extracellular domain of mouse EphA4 recombinant protein or extracellular domain of mouse EphB2 recombinant protein was pre-coated on the ELISA plate and then incubated with different IgG1s for 1 hr at room temperature. After several washes with DPBS, the EphA4 or EphB2 proteins were then incubated with different biotinylated recombinant mouse ephrin-A/ephrin-B Fc chimera proteins for 1 hr at room temperature. The interaction of EphA4/EphB2 and ephrin-A/ephrin-B was determined via the streptavidin-biotin detection method."}, "[4]": {"target": "T4, human EphA4 fused with IgG1 Fc and Avi-tag (EphA4-Fc) (human, UniProt P54764 20-547)", "T4 construct": "also called human EphA4-Fc; not shown: human IgG1 Fc; Avi-tag", "T4 sequence (P54764 20-547 limits assumed)": "as the sequence (Q03137 20-547 limits assumed) above, with A59P, S121N, G124V, Q250R, N251S, S270T, R378K, S406N counted along it", "test": "ELISA, EphA4 coated, IgG1 detected with anti-Fab-HRP", "experimental": "(§4) FIG. 3. Binding of IgG1s m101, m105, and m119 to mouse and human EphA4 measured by ELISA. Serially diluted IgG1s were added to EphA4-coated wells. HRP-conjugated anti-Fab Ab was used for detection.\nas §3"}, "[5]": {"target": "T3, extracellular domain of mouse EphA4 …", "test": "competitive ELISA, mouse EphA4 ECD coated; competitor biotinylated mouse ephrin-A5 Fc; ligand mEphrin-A5", "experimental": "as §1, §2"}, "[6]": {"target": "T3, extracellular domain of mouse EphA4 …", "test": "competitive ELISA, mouse EphA4 ECD coated; competitor biotinylated ephrin-B2 Fc; ligand Ephrin-B2", "experimental": "as §1, §2"}, "[7]": {"target": "T3, extracellular domain of mouse EphA4 …", "test": "competitive ELISA, mouse EphA4 ECD coated; competitor biotinylated mouse ephrin-A1 Fc; ligand mEphrin-A1", "experimental": "as §1, §2"}, "[8]": {"target": "EphA4 in cultured hippocampal neurons (rat, UniProt D3ZZK3 20-986)", "test": "cell-based or functional assay"}, "[9]": {"target": "T3, extracellular domain of mouse EphA4 …", "test": "competitive ELISA: mouse EphA4 extracellular domain coated, incubated with IgG1 m105, then biotinylated mouse ephrin-B2 Fc; streptavidin-biotin detection, % of inhibition", "experimental": "as §1, §2"}, "[10]": {"target": "T4, human EphA4 fused with IgG1 Fc and …", "test": "ELISA, EphA4 coated, Fab detected with anti-FLAG-HRP; human EphA4; Fab, not IgG1", "experimental": "FIG. 2. Binding of IgG1s E1 (m101), E2, E5 (m105), and E19 (m119) to mouse and human EphA4 measured by ELISA. Serially diluted IgG1s were added to EphA4-coated wells. HRP-conjugated anti-FLAG Ab was used for detection.\nas §3"}, "[11]": {"target": "T4, human EphA4 fused with IgG1 Fc and …", "test": "ELISA, EphA4 coated, IgG1 detected with anti-Fab-HRP; human EphA4; IgG1 format", "experimental": "as §4, §3"}},
  "data": [
    {"binder": "IgG1 m105 (antibody, V domains shown, Fully human IgG1 made from Fab E5 (pDR12 vector); also called E5; 105L) VH: EVQLVQSGAEVKKPGSSVKVSCKASGGTFSSYAISWVRQAPGQGLEWMGGIIPIFGTANYAQKFQGRVTMTRDTSISTAYMELSRLRSDDTAVYYCARELLYCSSTSCGTHGFDIWGQGTMVTVSS VL: not shown", "values": [
      {"measurement": "Kd", "setting": "[1]", "value": "~8.6", "unit": "nM"},
      {"measurement": "binding result", "setting": "[2]", "value": "no binding (tested: 1000 nM (Log [nM] = 3))"},
      {"measurement": "IC50", "setting": "[3]", "value": 0.35, "unit": "nM"},
      {"measurement": "EC50", "setting": "[4]", "value": "< 1", "unit": "nM"},
      {"measurement": "IC50", "setting": "[5]", "value": 22.7, "unit": "nM"},
      {"measurement": "IC50", "setting": "[6]", "value": 1.81, "unit": "nM"},
      {"measurement": "IC50", "setting": "[7]", "value": 0.34, "unit": "nM"},
      {"measurement": "IC50 of inhibition of ephrin-A1 mediated EphA4 clusters", "setting": "[8]", "value": 4.16, "unit": "µg/mL"},
      {"measurement": "IC50", "setting": "[9]", "value": 0.78, "unit": "nM"}
    ]},
    {"binder": "Fab E5 (m105) (Fab, V domains shown, Soluble Fab, detected with anti-FLAG antibody; also called clone E5; Fab m105) VH: EVQLVQSGAEVKKPGSSVKVSCKASGGTFSSYAISWVRQAPGQGLEWMGGIIPIFGTANYAQKFQGRVTMTRDTSISTAYMELSRLRSDDTAVYYCARELLYCSSTSCGTHGFDIWGQGTMVTVSS VL: not shown", "values": [
      {"measurement": "EC50", "setting": "[10]", "value": 2, "unit": "nM"}
    ]},
    {"binder": "IgG1 m101 (antibody, V domains shown, Fully human IgG1 made from Fab E1 by re-cloning into the pDR12 vector; also called E1; IgG1 E1) VH: QVQLQQSGAEVKKPGSSVKVSCKASGYTFTGYYMHWVRQAPGQGLEWMGGIIPIFGTANYAQKFQGRVTITADKSTSTAYMELSSLRSEDTAVYYCATAPMVCSSTSCYLRGFDYWGQGTLVTVSS VL: not shown", "values": [
      {"measurement": "Kd", "setting": "[1]", "value": "~83", "unit": "nM"},
      {"measurement": "EC50", "setting": "[11]", "value": 1, "unit": "nM"},
      {"measurement": "IC50", "setting": "[3]", "value": 0.71, "unit": "nM"}
    ]},
    {"binder": "Fab E1 (m101) (Fab, V domains shown, Soluble Fab from the phage library, detected with anti-FLAG antibody (FLAG tag); also called clone E1; Fab m101) VH: QVQLQQSGAEVKKPGSSVKVSCKASGYTFTGYYMHWVRQAPGQGLEWMGGIIPIFGTANYAQKFQGRVTITADKSTSTAYMELSSLRSEDTAVYYCATAPMVCSSTSCYLRGFDYWGQGTLVTVSS VL: not shown", "values": [
      {"measurement": "EC50", "setting": "[10]", "value": 5, "unit": "nM"}
    ]}
  ]
}
